The values below come from patent publication US6566505 (THOMAS JEFFERSON UNIVERSITY, dated 2003).

Data set [1] deals with T1, bacterially expressed recombinant Mch6 (6His-C terminal tagged protein) (human, UniProt P55211 1-416).
T1 construct: also called purified Mch6 protein; mammalian ced-3 homolog 6; not shown: C-terminal 6His tag from vector pET21b
T1 chain: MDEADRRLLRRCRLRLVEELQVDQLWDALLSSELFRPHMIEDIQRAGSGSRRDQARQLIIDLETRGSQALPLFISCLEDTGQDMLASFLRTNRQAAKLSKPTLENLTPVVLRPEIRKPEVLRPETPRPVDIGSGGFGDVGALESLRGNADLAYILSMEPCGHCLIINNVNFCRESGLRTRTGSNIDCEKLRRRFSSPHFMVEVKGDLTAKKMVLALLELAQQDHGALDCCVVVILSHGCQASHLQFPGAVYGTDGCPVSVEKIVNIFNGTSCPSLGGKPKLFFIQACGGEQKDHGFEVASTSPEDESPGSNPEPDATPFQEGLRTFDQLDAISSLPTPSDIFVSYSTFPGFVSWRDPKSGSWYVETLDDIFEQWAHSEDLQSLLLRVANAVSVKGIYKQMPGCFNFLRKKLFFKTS
Put plainly: inhibition of the hydrolysis of 50 µM DEVD-AMC by recombinant Mch6 after 30 min preincubation with DEVD-CHO, continuous fluorometric assay.

For data set [2], the target named is T2, wild type proMch6 (35S-labeled, in vitro translated).
T2 chain: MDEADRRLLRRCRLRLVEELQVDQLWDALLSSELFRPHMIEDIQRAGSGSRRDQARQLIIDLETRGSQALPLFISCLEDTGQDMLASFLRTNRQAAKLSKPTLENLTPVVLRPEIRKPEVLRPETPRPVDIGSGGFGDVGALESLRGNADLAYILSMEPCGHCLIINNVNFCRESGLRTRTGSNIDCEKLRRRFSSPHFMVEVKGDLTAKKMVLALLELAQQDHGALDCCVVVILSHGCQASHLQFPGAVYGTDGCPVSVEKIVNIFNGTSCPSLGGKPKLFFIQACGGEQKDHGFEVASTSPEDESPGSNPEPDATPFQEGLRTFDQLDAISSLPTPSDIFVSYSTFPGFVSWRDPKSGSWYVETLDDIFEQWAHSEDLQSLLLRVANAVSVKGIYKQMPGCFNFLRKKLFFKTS

The target of data set [3] is T3, DEVD-AMC (Asp-Glu-Val-Asp-aminomethylcoumarin).
T3 chain: DEVD

Data set [4] addresses T4, YVAD-AMC (Tyr-Val-Ala-Asp-aminomethylcoumarin).
T4 chain: YVAD

Data set [5] concerns the target T5, ZEVD-AMC (carbobenzoxy-Glu-Val-Asp-aminomethylcoumarin).
T5 chain: EVD

Ends that are not written are not given here.

B1: DEVD-CHO (Asp-Glu-Val-Asp-aldehyde) (peptide)
peptide: DEVD-aldehyde
notes: Tetrapeptide aldehyde substrate analog; also called DEVD-CHO peptide
The term Ki denotes the equilibrium dissociation constant of an inhibitor or competing ligand from its target. Turning to B1, the Ki in data set [1] was less than 10 nM.

B2: purified recombinant human CPP32 (protein)
chain: SGISLDNSYKMDYPEMGLCIIINNKNFHKSTGMTSRSGTDVDAANLRETFRNLKYEVRNKNDLTREEIVELMRDVSKEDHSKRSSFVCVLLSHGEEGIIFGTNGPVDLKKITNFFRGDRCRSLTGKPKLFIIQACRGTELDCGIETDSGVDDDMACHKIPVEADFLYAYSTAPGYYSWRNSKDGSWFIQSLCAMLKQYADKLEFMHILTRVNRKVATEFESFSFDATFHAKKQIPCIVSMLTKELYFYH
As for B2, in data set [2], the “processing of 35S-labeled proMch6 (Tricine-SDS-PAGE and autoradiography)” value is “CPP32 cleaves proMch6 at one site to generate two cleavage products of approximately 37 kDa or p37 and approximately 10 kDa or p10”.

B3: bacterially expressed recombinant Mch6 (6His-C terminal tagged protein) (protein)
chain: MDEADRRLLRRCRLRLVEELQVDQLWDALLSSELFRPHMIEDIQRAGSGSRRDQARQLIIDLETRGSQALPLFISCLEDTGQDMLASFLRTNRQAAKLSKPTLENLTPVVLRPEIRKPEVLRPETPRPVDIGSGGFGDVGALESLRGNADLAYILSMEPCGHCLIINNVNFCRESGLRTRTGSNIDCEKLRRRFSSPHFMVEVKGDLTAKKMVLALLELAQQDHGALDCCVVVILSHGCQASHLQFPGAVYGTDGCPVSVEKIVNIFNGTSCPSLGGKPKLFFIQACGGEQKDHGFEVASTSPEDESPGSNPEPDATPFQEGLRTFDQLDAISSLPTPSDIFVSYSTFPGFVSWRDPKSGSWYVETLDDIFEQWAHSEDLQSLLLRVANAVSVKGIYKQMPGCFNFLRKKLFFKTS
Take B3: in data set [3], the Km (DEVD-AMC) is 10 µM and the Vmax/Km (DEVD-AMC) amounted to 100. In addition, in data set [4], the Vmax/Km (YVAD-AMC) was less than 0.1. The Vmax/Km (ZEVD-AMC) in data set [5] was 2.7.
